Experimental data reported in IntAct's records for PubMed 23454188.

Biological target: gima7_human GIMAP7 (UniProt Q8NHV1)
Sequence (Q8NHV1 whole entry): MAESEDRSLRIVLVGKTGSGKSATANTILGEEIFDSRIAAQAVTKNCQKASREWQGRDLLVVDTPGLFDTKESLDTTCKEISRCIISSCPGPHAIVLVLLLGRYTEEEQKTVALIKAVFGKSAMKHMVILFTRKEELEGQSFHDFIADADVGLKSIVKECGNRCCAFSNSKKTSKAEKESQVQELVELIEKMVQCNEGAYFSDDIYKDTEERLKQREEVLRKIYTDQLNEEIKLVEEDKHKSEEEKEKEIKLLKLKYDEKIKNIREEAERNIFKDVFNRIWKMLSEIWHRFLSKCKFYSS

GTPase IMAP family member 2 (Homo sapiens), Q9UG22 R117D, sequence (Q9UG22 whole entry R117D): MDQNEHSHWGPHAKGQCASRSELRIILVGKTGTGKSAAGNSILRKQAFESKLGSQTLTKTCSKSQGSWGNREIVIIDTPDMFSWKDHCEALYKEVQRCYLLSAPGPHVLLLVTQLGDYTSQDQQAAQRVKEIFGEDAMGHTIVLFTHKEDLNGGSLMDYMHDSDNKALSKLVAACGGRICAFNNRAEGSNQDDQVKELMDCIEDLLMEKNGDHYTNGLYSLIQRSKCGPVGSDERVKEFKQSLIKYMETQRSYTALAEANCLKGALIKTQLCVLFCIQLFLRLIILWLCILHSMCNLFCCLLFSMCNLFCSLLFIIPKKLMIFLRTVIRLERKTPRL
GTPase IMAP family member 2 (Homo sapiens), Q9UG22 S54A, sequence (Q9UG22 whole entry S54A): as the sequence (Q9UG22 whole entry R117D) above, with S54A, D117R counted along it

Row | Substance | effect of a mutation on the interaction
1 | GTPase IMAP family member 2 (Homo sapiens), Q9UG22 R117D | disrupting interaction strength
2 | GTPase IMAP family member 2 (Homo sapiens), Q9UG22 S54A | disrupting interaction strength
